In EP1257648B2 (AMGEN INC., dated 2016):
“And” between values parts separate entries of the source, which are not always exact repeats. Identical values can stand only once.

T1: human OPGbp[143-317] (human, UniProt O14788 143-317)
T1 sequence (looked up): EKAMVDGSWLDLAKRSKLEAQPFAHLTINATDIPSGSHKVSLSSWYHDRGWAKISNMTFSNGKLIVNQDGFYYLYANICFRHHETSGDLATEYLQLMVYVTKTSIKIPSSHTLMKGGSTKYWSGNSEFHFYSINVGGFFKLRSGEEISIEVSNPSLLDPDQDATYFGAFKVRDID


Target: T1, human OPGbp[143-317]
Assay: cell-based or functional assay

IC50, murine bone marrow osteoclast formation assay (TRAP, pNPP) [nM]	IC50, bone marrow assay (TRAP)	IC50, RAW cell assay (TRAP), positive control [µg/mL]	Binder	IC50, RAW cell assay (TRAP)	IC50, murine bone marrow assay (TRAP)
57.8	–	–	Fab "AT" (Fab, V domains shown) VH: QVQLVQSGAEVRKPGASVKVSCKASGYDFSNYAIHWVRQAPGQRLEWMGWINAGNGNTKFSQKFQGRITVTRDTAASTAYMELRSLRSEDTAVYYCARDSSNMVRGIIIAYYFDYWGQGTLVTVSS VL: EIVMTQSPSSLSASVGDRVTITCRASQSISRYLNWYQLKPGKAPRLLIYGASSLQSGVPSRFSGSGSGAEFTLTISSLQPEDIATYYCQHTRAFGQGTKVEIKR	15 µg/ml and 300 nM	–
–	2.35 µg/ml and 14.4 nM	–	"AT" antibody (antibody, V domains shown) VH: QVQLVQSGAEVRKPGASVKVSCKASGYDFSNYAIHWVRQAPGQRLEWMGWINAGNGNTKFSQKFQGRITVTRDTAASTAYMELRSLRSEDTAVYYCARDSSNMVRGIIIAYYFDYWGQGTLVTVSS VL: EIVMTQSPSSLSASVGDRVTITCRASQSISRYLNWYQLKPGKAPRLLIYGASSLQSGVPSRFSGSGSGAEFTLTISSLQPEDIATYYCQHTRAFGQGTKVEIKR	60.3 nM and 21.4 nM and 3 ug/ml and 9 ug/ml and 3.2 ug/ml and 20.1 nM	2.15 ug/ml and 14.4 nM and 1.85 ug/ml and 12.5 nM
–	–	0.033	human OPG [22-194]-Fc (Fc fusion, UniProt O00300 22-194, looked up, not shown: a dimerising Fc or GST) ETFPPKYLHYDEETSHQLLCDKCPPGTYLKQHCTAKWKTVCAPCPDHYYTDSWHTSDECLYCSPVCKELQYVKQECNRTHNRVCECKEGRYLEIEFCLKHRSCPPGFGVVQAGTPERNTVCKRCPDGFFSNETSSKAPCRKHTNCSVFGLLLTQKGNATHDNICSGNSESTQK	–	–
